# According to the DeepSol protein solubility set:
# Assay: soluble on expression in E. coli; label from the status in PepcDB or PDB records
row,Sequence,soluble on expression in E. coli
1,MKFKQDFFTQLPEFYSQVYPQGISNPHWLAWSDDAAALIGLHQPTDELLQGLSGNAAVEGASYYAQVYSGHQFGGYTPRLGDGRSIILGEAIGPNGAWDVALKGGGPTPYSRHGDGRAVMRSAVREFLVSEALHHLGVPTTRALAVIGSDMPVWRESQETAAITVRLARSHIRFGHFEFFSHSERGQADKLTQLLNFTLKQHYPHLSCDPAGYKAWFLQVVQDSAKMIAHWQAIGFAHGVMNTDNMSILGDSFDFGPFAFLDTFQEDFICNHSDPDGRYAFGQQPGIGLWNLQRLAQALTPVIASDDLIAALNQYQHALVQHYLALMRAKLGLVQQADSSAEQDQQDLELIGRFTVLMEKNQLDYSHTWRRFGQLDPSSLHSSLRDDFIDLNEFDAWYQVYQARLGKVTDVEAWQQQCNRVNPKYILRNYLAQEAIIAVDEGNLAQLQRLHQVLRQPFTEQIEHEELAKRPPDWGQGLIMSCSS,soluble
2,MKFLELNKKRHATKHFTDKLVDPKDVRTAIEIATLAPSAHNSQPWKFVVVREKNAELAKLAYGSNFEQVSSAPVTIALFTDTDLAKRARKIARVGGANNFSEEQLQYFMKNLPAEFARYSEQQVSDYLALNAGLVAMNLVLALTDQGIGSNIILGFDKSKVNEVLEIEDRFRPELLITVGYTDEKLEPSYRLPVDEIIEKR,soluble
3,MKFLFYLSADNLEIARKEVLVLAERYGWVEDYQFEERLLLLDYAGEKFFERLAYTNEVTKIYDICSVSELEQVFSEIPVYDRLCCVRVKGGKGKTALERKLGALLWKRGAKVSVSNPEIVYKVYIQDDKCYVGLLEFERDTRQFFLRRPDRRPFLMPSAIKPKLARALVNLTGVLEGETLLDPMCGTGSFLIEAGLMGINPIGIDFIEKIVRGCRVNLEYYGIEGSVLLGDAKNLPLRDESVRGIATDYPYLRSTKAAGTLDELYSKTSEEFERVLKKGGRAAIVTNIDVESFFSNFEIEMKTEERVHGSLTRRIYLLRR,not soluble
4,MKFTVGNGQNQHKGVNDGFSYEIWLDNTGGNGSMTLGSGATFKAEWNAAVNRGNFLARRGLDFGSQKKATDYDYIGLDYAATYKQTASASGNSRLCVYGWFQNRGLNGVPLVEYYIIEDWVDWVPDAQGKMVTIDGAQYKIFQMDHTGPTINGGSETFKQYFSVRQQKRTSGHITVSDHFKEWAKQGWGIGNLYEVALNAEGWQSSGVADVTLLDVYTTPKGSSPALEHHHHHH,soluble
5,MKGGLLVDDEFIHGEERSLTVRKTSLFFAGDGFTVYDCKGSLVFRVDSYGGPNTRDTDEVVLMDAHGRCLLTLRRKRPSLRRRWEGYLGERSDGQKPIFGVRRSSIIGRNSVTVEVYGDYQCSEYLIEGSFGARNCTVVEAETRRKVAEIRRKVDASTNVMLGKDVFSLNVKPGFDGAFAMGLVLVLDQIYGDDLLEVGEEQVHPSAEDL,not soluble
6,MKGRIELGDVTPHNIKQLKRLNQVIFPVSYNDKFYKDVLEVGELAKLAYFNDIAVGAVCCRVDHSQNQKRLYIMTLGCLAPYRRLGIGTKMLNHVLNICGWMDGWMDGWMDGRASEIVEIPCLFLGYQFPKQSKSKLRSLVLSTFTLMDKLQRALAKRRGHK,not soluble
7,MKHKLIDDELKYLDERSRDIFRHIVEAYLNDGGPVGSRNLSRLLRQTLSPATIRNVMSDLEHLGLIYAPHVSAGRMPTQSGLRFFVDAFMEAGDLPNEERENIEAQVKEAGHAQSVEHFLVQASQVLSDLSRGAGLVLATKHEGTLKHIEFVRLDGEHALAVLVTQQGGVENRIVHLPEGVTHAQLTEATNFLNAHIQGLTLSEAKEEIARLCSETRAALDHLSHHLVETGLALWGGEGADHKIRLIVRGRSNLLEDVKAEEDLKRLRHLFDDLETRESMAQLLDLTDEGSGVRIFIGSENKLFSLSGSSLVVAPYRDSQQKVIGALGVIGPTRLNYARIVPMVDYTAQLVSQLLR,not soluble
8,MKHSHLYELQPDPYDFTQRKTCRVCLFKDVKNAAELSQQLKEGKIDAALIRAELVLEPFVLLAAANRAVHQSAHNRMSCRSLAAELVYSLSPSRNITDSLVTFGIAEHSTAIIAAIFDDDSGKAMKKLAKAIKGTPVPLMEGLPKFANVNMIKKVYQVGNPAFVEEGLSDHIVSRMVSKDFVS,not soluble
9,MKHSNKPYDSFQDELEDYIKVQKARGLEPKTCFRRMRGEYLESCGYREEFDSRPRYRMFDQRLPSGTNHSYPRSCSSSQTEDRVPQWLPAHDKIRLNSLSYCQFTRDGFSEKPVPLNLSQQEYNCGSYSVESVVHKRLCSEHSTIDPQVSHRQMHQKRKKHVEEGREKQEERPKHERKRSSEEMDLNKHRSIQRKKTKAETETVQDGTEKLKNRKEKKTRDVSSKKEDRKRRKEKKEQGEERTEEEMLWDQSILGF,not soluble
10,MKHSVNAMAGGHGAARYNSTDLPKLPAPQPIKTLKHFLDFAQALQSKKEFQETKQIVNDFVVKDLPKLQELLQKRADALPNWLTPWWLNIAYLAARTPLPVVTSPGVMFPKFDYNTEEGQLEYAAKISQAAVHFYLRAKNNQLKPDMAGKSPLDMSQYQFLFGTTRVPKVGVDEIRYGCDYKEKLQHILVIRNGHLFRVQVLDSNEQPLSIFAITQQLAKVVSESQTPNPHPVGIVSSDSRDKWANVYSSLKKDNNNAKSLEAVEKSLFVVCLDKASEPPVGYTEKDEQSRQALHGGGSKVNSSNRWFDKTIQFVIGTNGYTGMTYEHTPAEGPPVGALMDFICDQFDANTFITEGTPSNSPVQRLDISTDEEINKRIAKSSKNMDSIAEDLDIVAFTFKPYGKNFPKSSKISPDSFIQMAYQLAFYRIHSSLPPTYETATLRKFTEGRTENIRSPNTAAASFVKKMVSKPPTPVSEIYDALVHATNSHKKYTMDCMDAAGMDRHLLAWKLIATENNLPTPEIFGSNIYQQLNHFQVSTSQVPTRHFIQMCFGPSALDCYGICYNPQETELHFMISTFKSYGSTSSKKFAKELQKALIDMKSVINKATKEMSKL,not soluble
11,MKIAIAGAGAMGSRLGIMLHQGGNDVTLIDQWPAHIEAIRKNGLIADFNGEEVVANLPIFSPEEIDHQNEQVDLIIALTKAQQLDAMFKAIQPMITEKTYVLCLLNGLGHEDVLEKYVPKENILVGITMWTAGLEGPGRVKLLGDGEIELENIDPSGKKFALEVVDVFQKAGLNPSYSSNVRYSIWRKACVNGTLNGLCTILDCNIAEFGALPVSESLVKTLISEFAAVAEKEAIYLDQAEVYTHIVQTYDPNGIGLHYPSMYQDLIKNHRLTEIDYINGAVWRKGQKYNVATPFCAMLTQLVHGKEELLGAK,soluble
12,MKIALIQQKFHLNKEQTIKKTCEFIEEASKQGAELVCLGELHQSEYFCQSENVDFFDYANDYEKDVKFWANIARKNQIVLIASLFEKRSAGLYHNTAVVFEKDGSIAGKYRKMHIPDDPCFYEKFYFTPGDLGFEPINTSLGKLGVLICWDQWYPEAARIMALKGAEILIYPTAIGWFDKDKDEEKQRQLNAWLGVQKGHAIANGLYVVAINRVGFEKDVSGVEEGIRFWGNSFVFGPQGEELCLLDSQNECVKIIEIDKKRSENVRRWWPFLRDRRIEYFTDLTKRFID,soluble
13,MKIAVAGSGYVGLSLGVLLSLQNEVTIVDILPSKVDKINNGLSPIQDEYIEYYLKSKQLSIKATLDSKAAYKEAELVIIATPTNYNSRINYFDTQHVETVIKEVLSVNSHATLIIKSTIPIGFITEMRQKFQTDRIIFSPEFLRESKALYDNLYPSRIIVSCEENDSPKVKADAEKFALLLKSAAKKNNVPVLIMGASEAEAVKLFANTYLALRVAYFNELDTYAESRKLNSHMIIQGISYDDRIGMHYNNPSFGYGGYCLPKDTKQLLANYNNIPQTLIEAIVSSNNVRKSYIAKQIINVLKEQESPVKVVGVYRLIMKSNSDNFRESAIKDVIDILKSKDIKIIIYEPMLNKLESEDQSVLVNDLENFKKQANIIVTNRYDNELQDVKNKVYSRDIFGRD,soluble
14,MKIGDVEVRDDVFNVKVKKHVLWEVVKWQLAKRRQGTHSTKTRGEVAYSGRKILPQKGTGNARHGERGVNIFVGGGVAHGPKPRDYEYPLPKRVRKLGLKMALSDKARNNAIIFVDNIDLGKKPKTKKAIEFLKNLGVEKEKVLVVIPEKADVLYKSFRNLPNVRVLLPEGLNVYDVLWANKLVIQKDCLDRIYKKVEA,soluble
15,MKIGIDAGGTLIKIVQEHDNRRYYRTELTTNIQKVIDWLNNEEIETLKLTGGNAGVIADQIHHSPEIFVEFDASSKGLEILLDEQGHQIEHYIFANVGTGTSFHYFDGKDQQRVGGVGTGGGMIQGLGYLLSNITDYKELTNLAQNGDRDAIDLKVKHIYKDTEPPIPGDLTAANFGNVLHHLDNQFTSANKLASAIGVVGEVITTMAITLAREYKTNHVVYIGSSFNNNQLLREVVENYTVLRGFKPYYIENGAFSGALGALYLLEHHHHHH,soluble
16,MKIGVDAGGTLIKIVQEKNGERTYSTRLTTEIEEVIQWLNQQDCNNINLTGGQAAMINEQLNCESRVFVEFDAAAKGLEILLEEQGHFLDDYIFTNVGTGTSLHFSNGKAQKRVGGIGTGGGMIQGLGYLLTGISNYKQLTDTAQNGNRDIIDLKVKHIYKDSEPPISGDLTAANFGNVLHHLDESFTDADKLASVIAVVGEVITTMSITVAREHNTKNVAYIGSSFHNNDLLKDVVKDYTVLRGCEPYYIEHGAFSGALGSIHLLEHHHHHH,not soluble
17,MKIHPTAIIDPKAELHESVEVGPYSIIEGNVSIQEGTIIEGHVKICAGSEIGKFNRFHQGAVIGVMPQDLGFNQQLLTKTVIGDHNIFREYSNIHKGTKEDSPTVIGNKNYFMGNSHVGHDCILGNNNILTHGAVLAGHVTLGNFAFISGLVAVHQFCFVGDYSMVAGLAKVVQDVPPYSTVDGNPSTVVGLNSVGMKRAGFSPEVRNAIKHAYKVIYHSGISTRKALDELEASGNLIEQVKYIIKFFRDSDRGVTNHR,soluble
18,MKILHTADWHLGQTFYEYDRREEHLHFLEWLKQQIRQHEIDVLLIAGDVFDSPNPSAESQRMYYRFLREVTSENPSLQIIIIAGNHDSAARLEAPNPLLENMNVTVRGVVRRNAEGDIDLQHLIVPLYTEGEVTAYCLAVPYLRQGDYPSAENYSKGVQLLYEQLFNEVKEKGLPVIAMGHLQATGSEISEDDRSERTVIGGLECVSPDAFDEAIAYTALGHLHRSQRVSHRENVRYSGTPMPMSFAERNNASGVVMITISAEGTGIERLA,not soluble
19,MKILYIILFIQIGWIFPLSAQKQDSIYIGTRHTLFSEILNEERKYWIYVPETKAGEKGKAYPVLYLLDGDSFFHSVVGFTRFFSSSKTSNLPPCIVVAVLNTDRTRDFTPTCSAARRDGTICPYDKPAGGGAEQFHRFLIEELRLEVENKVPANGTNFLVGHSYAGLFTLQTLSNHPESFDSYIAIDPSLWWDRGVFLQQAAKNVYQKDFSGKHLYVAFATRQRPAIKLIQFSLADSLKNKIIPEMKNKHLHVVYKKFPDEVHGTIALPAIFDGLKSLFHNTISTKEAT,not soluble
20,MKIMILGIDIGGANTKITEIEGDNYKIHHIYFPMWKKKDELEDLLKNYNDNVDYVALVMTAELADCYKTKKEGVEDIIDKVEKAFNCPVYVFDVNGNFLTSEEAKKNYLDVSASNWNATAKFVAEFIKDSCILVDMGSTTTDIIPIKDKEVLAEKTDLDRLMNNQLVYVGTLRTPVSFLANKIEFRGKLTNLSSEYFAITADISLILNKITEEDYTCDTPDGAGKDFESCLTRLVRVLCADREMVKDDELIDFANKLYNKLLELIRENVDTIAKRYNLNDVVITGLGEEILKDALDEYNIISIKETYGKDVSLATPSFAVAKLLQKQLDKLEHHHHHH,not soluble
